Sequences and labels used below:
B1: SH3BP2 peptide 408-423 (SH3 domain-binding protein 2), 16-mer library wild type / TNKS ANK (TNKS 12 ANK repeats, residues 174-649) (parent complex)
chain 1: PQLPHLQRSPPDGQSF
chain 2: TGVPAVSGALRELLEACRNGDVSRVKRLVDAANVNAKDMAGRKSSPLHFAAGFGRKDVVEHLLQMGANVHARDDGGLIPLHNACSFGHAEVVSLLLCQGADPNARDNWNYTPLHEAAIKGKIDVCIVLLQHGADPNIRNTDGKSALDLADPSAKAVLTGEYKKDELLEAARSGNEEKLMALLTPLNVNCHASDGRKSTPLHLAAGYNRVRIVQLLLQHGADVHAKDKGGLVPLHNACSYGHYEVTELLLKHGACVNAMDLWQFTPLHEAASKNRVEVCSLLLSHGADPTLVNCHGKSAVDMAPTPELRERLTYEFKGHSLLQAAREADLAKVKKTLALEIINFKQPQSHETALHCAVASLHPKRKQVTELLLRKGANVNEKNKDFMTPLHVAAERAHNDVMEVLHKHGAKMNALDTLGQTALHRAALAGHLQTCRLLLSYGSDPSIISLQGFTAAQMGNEAVQQILSESTPIRTSD

This assay covers variants of B1. The experiment in a line: proteomic peptide phage display deep mutational scan (ProP-PD DMS): M13 P8 16-mer library selected against immobilised GST-tagged bait for four days (rounds), NGS of the eluted pools per day and pseudo-replica; bait immobilised on MaxiSorp plates (10 µg), library pre-cleared on GST, 2 h binding at 4 °C, five washes; one round per day, days 1-4; value from days 2 and 3.
For the variant chain 1 PQLPHLQRLPPDGQSF [chain 1 S9L], the screen value was 0.00406 average fractional NGS count over selection days 2 and 3 (reads of this peptide / all reads for the bait, averaged over …. The result for chain 1 PQLPHLQRYPPDGQSF [chain 1 S9Y] reads 0.000793 average fractional NGS count over selection days 2 and 3 (reads of this peptide / all reads for the bait, averaged over ….

Turning to chain 1 PQLPHLQRMPPDGQSF [chain 1 S9M], the screen value was 0.00474 average fractional NGS count over selection days 2 and 3 (reads of this peptide / all reads for the bait, averaged over …. As for chain 1 PQLPHLQRDPPDGQSF [chain 1 S9D], the screen value was 0.00106 average fractional NGS count over selection days 2 and 3 (reads of this peptide / all reads for the bait, averaged over …. The result for chain 1 PQLPHLQRQPPDGQSF [chain 1 S9Q] reads 0.00451 average fractional NGS count over selection days 2 and 3 (reads of this peptide / all reads for the bait, averaged over …; that for chain 1 PQLPHLQRNPPDGQSF [chain 1 S9N], 0.000282 average fractional NGS count over selection days 2 and 3 (reads of this peptide / all reads for the bait, averaged over …. On to chain 1 PQLPHLQRHPPDGQSF [chain 1 S9H], for which the screen value was 0.00219 average fractional NGS count over selection days 2 and 3 (reads of this peptide / all reads for the bait, averaged over …. In the case of chain 1 PQLPHLQRWPPDGQSF [chain 1 S9W], the screen value was 0.000206 average fractional NGS count over selection days 2 and 3 (reads of this peptide / all reads for the bait, averaged over …. The value for chain 1 PQLPHSQRSPPDGQSF [chain 1 L6S] was 0.000251 average fractional NGS count over selection days 2 and 3 (reads of this peptide / all reads for the bait, averaged over …; that for chain 1 PQLPHHQRSPPDGQSF [chain 1 L6H] was 0.000142 average fractional NGS count over selection days 2 and 3 (reads of this peptide / all reads for the bait, averaged over …. For the variant chain 1 PQLPHAQRSPPDGQSF [chain 1 L6A], the screen value is 0.00118 average fractional NGS count over selection days 2 and 3 (reads of this peptide / all reads for the bait, averaged over …. The result for chain 1 PQLPHVQRSPPDGQSF [chain 1 L6V] reads 0.000569 average fractional NGS count over selection days 2 and 3 (reads of this peptide / all reads for the bait, averaged over …. chain 1 PQLPHGQRSPPDGQSF [chain 1 L6G]: the screen value is 0.000481 average fractional NGS count over selection days 2 and 3 (reads of this peptide / all reads for the bait, averaged over …. Turning to chain 1 PQLPHMQRSPPDGQSF [chain 1 L6M], the screen value is 0.000442 average fractional NGS count over selection days 2 and 3 (reads of this peptide / all reads for the bait, averaged over …. The value for chain 1 PQLPHEQRSPPDGQSF [chain 1 L6E] was 0.00197 average fractional NGS count over selection days 2 and 3 (reads of this peptide / all reads for the bait, averaged over …. The value for chain 1 PQLPHYQRSPPDGQSF [chain 1 L6Y] was 0.000851 average fractional NGS count over selection days 2 and 3 (reads of this peptide / all reads for the bait, averaged over …; that for chain 1 PQLPHDQRSPPDGQSF [chain 1 L6D] was 0.00436 average fractional NGS count over selection days 2 and 3 (reads of this peptide / all reads for the bait, averaged over …; that for chain 1 PQYPHLQRSPPDGQSF [chain 1 L3Y] was 0.000217 average fractional NGS count over selection days 2 and 3 (reads of this peptide / all reads for the bait, averaged over …. With chain 1 PQQPHLQRSPPDGQSF [chain 1 L3Q], the screen value was 0.000641 average fractional NGS count over selection days 2 and 3 (reads of this peptide / all reads for the bait, averaged over …. The value for chain 1 PQHPHLQRSPPDGQSF [chain 1 L3H] was 0.000462 average fractional NGS count over selection days 2 and 3 (reads of this peptide / all reads for the bait, averaged over …; that for chain 1 PQMPHLQRSPPDGQSF [chain 1 L3M] was 0.000961 average fractional NGS count over selection days 2 and 3 (reads of this peptide / all reads for the bait, averaged over ….

In the case of chain 1 PQFPHLQRSPPDGQSF [chain 1 L3F], the screen value was 0.000552 average fractional NGS count over selection days 2 and 3 (reads of this peptide / all reads for the bait, averaged over ….

As for chain 1 PQKPHLQRSPPDGQSF [chain 1 L3K], the screen value is 0.000138 average fractional NGS count over selection days 2 and 3 (reads of this peptide / all reads for the bait, averaged over ….

Take chain 1 PQLPHLQRSPPDGRSF [chain 1 Q14R]: the screen value is 0.000901 average fractional NGS count over selection days 2 and 3 (reads of this peptide / all reads for the bait, averaged over …. The result for chain 1 PQLPHLQRSPPDGTSF [chain 1 Q14T] reads 0.00291 average fractional NGS count over selection days 2 and 3 (reads of this peptide / all reads for the bait, averaged over …; that for chain 1 PQLPHLQRSPPDGKSF [chain 1 Q14K], 0.00049 average fractional NGS count over selection days 2 and 3 (reads of this peptide / all reads for the bait, averaged over …. The value for chain 1 PQLPHLQRSPPDGLSF [chain 1 Q14L] was 0.000462 average fractional NGS count over selection days 2 and 3 (reads of this peptide / all reads for the bait, averaged over …; that for chain 1 PQLPHLQRSPPDGHSF [chain 1 Q14H] was 0.00138 average fractional NGS count over selection days 2 and 3 (reads of this peptide / all reads for the bait, averaged over …; that for chain 1 PQLPHLQRSPPDGASF [chain 1 Q14A] was 0.00095 average fractional NGS count over selection days 2 and 3 (reads of this peptide / all reads for the bait, averaged over ….

As to chain 1 PQLPHLQRSPPDGFSF [chain 1 Q14F], the screen value is 0.000219 average fractional NGS count over selection days 2 and 3 (reads of this peptide / all reads for the bait, averaged over …. The result for chain 1 PQLPHLQRSPPDGNSF [chain 1 Q14N] reads 0.000561 average fractional NGS count over selection days 2 and 3 (reads of this peptide / all reads for the bait, averaged over …; that for chain 1 PQLPHLQRSPPDGGSF [chain 1 Q14G], 0.000379 average fractional NGS count over selection days 2 and 3 (reads of this peptide / all reads for the bait, averaged over …. The result for chain 1 PQLPHLQESPPDGQSF [chain 1 R8E] reads 0.000101 average fractional NGS count over selection days 2 and 3 (reads of this peptide / all reads for the bait, averaged over …; that for chain 1 PQLPHLQRSPPDGQWF [chain 1 S15W], 0.000372 average fractional NGS count over selection days 2 and 3 (reads of this peptide / all reads for the bait, averaged over …. The result for chain 1 PQLPHLQRSPPDGQYF [chain 1 S15Y] reads 0.000762 average fractional NGS count over selection days 2 and 3 (reads of this peptide / all reads for the bait, averaged over …; that for chain 1 PQLPHLQRSPPDGQQF [chain 1 S15Q], 0.000297 average fractional NGS count over selection days 2 and 3 (reads of this peptide / all reads for the bait, averaged over …. With chain 1 PQLPHLQRSPPDGQRF [chain 1 S15R], the screen value is 0.000309 average fractional NGS count over selection days 2 and 3 (reads of this peptide / all reads for the bait, averaged over …. The value for chain 1 PQLPHLQRSPPDGQPF [chain 1 S15P] was 0.000545 average fractional NGS count over selection days 2 and 3 (reads of this peptide / all reads for the bait, averaged over …; that for chain 1 PQLPHLQRSAPDGQSF [chain 1 P10A] was 0.000707 average fractional NGS count over selection days 2 and 3 (reads of this peptide / all reads for the bait, averaged over …. The value for chain 1 PQLPHLQRSVPDGQSF [chain 1 P10V] was 0.00118 average fractional NGS count over selection days 2 and 3 (reads of this peptide / all reads for the bait, averaged over …; that for chain 1 PQLPHLQRSFPDGQSF [chain 1 P10F] was 0.000203 average fractional NGS count over selection days 2 and 3 (reads of this peptide / all reads for the bait, averaged over …. The result for chain 1 PQLPHLQRSHPDGQSF [chain 1 P10H] reads 0.0139 average fractional NGS count over selection days 2 and 3 (reads of this peptide / all reads for the bait, averaged over ….

For the variant chain 1 PQLPHLQRSLPDGQSF [chain 1 P10L], the screen value is 0.00106 average fractional NGS count over selection days 2 and 3 (reads of this peptide / all reads for the bait, averaged over …. The value for chain 1 PQLPHLQRSKPDGQSF [chain 1 P10K] was 0.00107 average fractional NGS count over selection days 2 and 3 (reads of this peptide / all reads for the bait, averaged over …; that for chain 1 PQLPTLQRSPPDGQSF [chain 1 H5T] was 0.000644 average fractional NGS count over selection days 2 and 3 (reads of this peptide / all reads for the bait, averaged over …. The result for chain 1 PQLPPLQRSPPDGQSF [chain 1 H5P] reads 0.000222 average fractional NGS count over selection days 2 and 3 (reads of this peptide / all reads for the bait, averaged over …; that for chain 1 PQLPYLQRSPPDGQSF [chain 1 H5Y], 0.000149 average fractional NGS count over selection days 2 and 3 (reads of this peptide / all reads for the bait, averaged over …. For chain 1 PQLPILQRSPPDGQSF [chain 1 H5I], the screen value was 0.000472 average fractional NGS count over selection days 2 and 3 (reads of this peptide / all reads for the bait, averaged over …. For chain 1 PQLPHLQRSPPAGQSF [chain 1 D12A], the screen value was 0.000288 average fractional NGS count over selection days 2 and 3 (reads of this peptide / all reads for the bait, averaged over ….

Consider chain 1 PQLPHLQRSPPLGQSF [chain 1 D12L], for which the screen value was 0.000574 average fractional NGS count over selection days 2 and 3 (reads of this peptide / all reads for the bait, averaged over …. The value for chain 1 PQLPHLQRSPPVGQSF [chain 1 D12V] was 0.000643 average fractional NGS count over selection days 2 and 3 (reads of this peptide / all reads for the bait, averaged over …. For the variant chain 1 PQLPHLQRSPADGQSF [chain 1 P11A], the screen value is 0.000639 average fractional NGS count over selection days 2 and 3 (reads of this peptide / all reads for the bait, averaged over …. On to chain 1 PILPHLQRSPPDGQSF [chain 1 Q2I], for which the screen value was 0.000434 average fractional NGS count over selection days 2 and 3 (reads of this peptide / all reads for the bait, averaged over …. The value for chain 1 PTLPHLQRSPPDGQSF [chain 1 Q2T] was 0.000819 average fractional NGS count over selection days 2 and 3 (reads of this peptide / all reads for the bait, averaged over …; that for chain 1 PHLPHLQRSPPDGQSF [chain 1 Q2H] was 0.000483 average fractional NGS count over selection days 2 and 3 (reads of this peptide / all reads for the bait, averaged over …; that for chain 1 PYLPHLQRSPPDGQSF [chain 1 Q2Y] was 0.000238 average fractional NGS count over selection days 2 and 3 (reads of this peptide / all reads for the bait, averaged over ….

For the variant chain 1 PVLPHLQRSPPDGQSF [chain 1 Q2V], the screen value was 0.000821 average fractional NGS count over selection days 2 and 3 (reads of this peptide / all reads for the bait, averaged over …. In the case of chain 1 PQLVHLQRSPPDGQSF [chain 1 P4V], the screen value was 0.000162 average fractional NGS count over selection days 2 and 3 (reads of this peptide / all reads for the bait, averaged over …. The value for chain 1 PQLTHLQRSPPDGQSF [chain 1 P4T] was 0.000173 average fractional NGS count over selection days 2 and 3 (reads of this peptide / all reads for the bait, averaged over …; that for chain 1 PQLYHLQRSPPDGQSF [chain 1 P4Y] was 0.000273 average fractional NGS count over selection days 2 and 3 (reads of this peptide / all reads for the bait, averaged over …; that for chain 1 PQLNHLQRSPPDGQSF [chain 1 P4N] was 0.000673 average fractional NGS count over selection days 2 and 3 (reads of this peptide / all reads for the bait, averaged over …. The value for chain 1 PQLGHLQRSPPDGQSF [chain 1 P4G] was 0.000551 average fractional NGS count over selection days 2 and 3 (reads of this peptide / all reads for the bait, averaged over ….

The values above are taken from article PMC12102759 (2025).
